Test results: US20040038369A1, “Airway-specific trypsin-like enzymes and method of using the same” (priority 2000, published 2004)

B1: Monkey: monkey AST, SEQ ID NO: 28 and 29, expressed in 293 EBNA cells (protein, listed as Macaca fascicularis)
chain: MYRPARVPSTSRFLNPYVVCFIVVAGVVILAVTIALLVYFLAFDQKSYFYRSSFQLLNVEYNSQLNSPATQEYRTLSGRIESLITRTFKESNLRNQFMRAHVVKLSQDGSGVRADVVMKFRFTRNNNGASMKSRIESVLQQMLNNSGNLEINSSTEITSLTDQAAANWLINECGAGPDLITLSEQRIIGGTEAEEGSWPWQVSLRVNNAHHCGGSLISNTWILTAAHCFRSNSNPREWIATFGISTTNPRLRMRVRSILIHNNYISATHENDIALVRLENSVTFTRDIHSVCLPAATQNIPLGSTAYVTGWGAQEYAGSTVSELRQAQVRIISNDVCNAPYSYNGGILPGMLCAGVPQGGVDACQGDSGGPLVQEDSRRLWFLVGIVSWGDQCGLPDRPGVYTRVTTYRDWIRQRTGI
B2: Rabbit: rabbit AST, SEQ ID NO: 34 and 35 (protein, listed as Oryctolagus cuniculus)
chain: MYRPARGSSTSRFLNPYVICFIVVAVVVILAVIVALLIHFLAFDKKSCFFHSSFQIRNVQYSDQLNSPATQEYRLLSERIESMISQTLQGSNLRNQFIRAHVVKLRQDSNSVIADVVMKFRVSRNNNGDAMKRRVQDVLQQMLNNSGSLEINPSTTVTEITGQDTETIFTQQCGARPDLITLSEERIIGGTQAEEGDWPWQVSLQPNNAHHCGGILISNTWILTAAHCFRSYSDPRQWTATFGISTAVSRQRMRIRTILVHNNYRSATHENDIAAVQLEGAITFTRNIHSVCLPEATQNITPGSSAYVTGWGSLEYGGNTVTYLQQGRVRIISNEVCNAPASYNGAVLPTMVCAGLSQGGVDACQGDSGGPLVQEDSRRLWFVVGIVSWGYQCGLPDKPGVYTRVTAYRDWIREQTGI
B3: Dog: dog AST, SEQ ID NO: 30 and 31 (protein, listed as Canis familiaris)
chain: MYRPARVPSGSRFLNPYVVCFVVVAGVVILAVTIALLIHFLAFDQKSYFYHSSFQILNVQYSNQLNSPGTQEYRTLSGRIESLITKTFRESNLRNQFIRAHVVKLRQEGNGVIADVVMKFKFTRNNNGALMKSRIKSVLHQMLNNSGNLEISPSTEITSITDQDTVNIFTEGCGARPDLITLSEERILGGNKAEEGDWPWQVSLQKNNVHHCGGVLISSMWILSAAHCFRSQSNPRQWTAIFGASIAFPKQKRRVRTILIHNNYNPATHENDIAAIQLEGGINFTKNIHRVCLPEATQNIPPGSSAYVTGWGSQEYGGNTVSDLQQARVRIISNDVCNAPTSYNGAVRPGMLCAGLPQGGVDACRGDSGGPLVQEDSRRLWFLVGIVSWGDRCGLPDKPGVYTRVTAYRDWITEKTGV
B4: Pig: pig AST, SEQ ID NO: 26 and 27 (protein, listed as Sus scrofa)
chain: MYRPATVRSASRSLNPYTVCFIVVAVVVILAVTIALLVHFLAFDQKAYFYHSRFQILNVEYSDELNSPATQKYRSLSGRIESMITRTFKESNLRNQFVRAHVVKLRQSGSGVIADIVMKFKFTRYNNGASMKSRIESVLRQMLNNTGNLVMNPSTELTPITDQDTVNIFTQGCGARPDLITLSEERIIGGTKAEEGDWPWQVSLQRNNLHHCGGVLISNRWILTAAHCFRSYSDPRQWTVTFGISTIFPKDRIGVRNILIHNNYNPETHENDIALVQLNREVAFTKNIHSVCLPEATQTIPPGSTAYVTGWGSQRYSGNTVPDLEQVRVNIISNDVCNSPAGYNGDVLPGMLCAGLPEGGADACQGDSGGPLQQEDSRRLWFLVGIVSWGYQCGLPDKPGVYTRVTAYRDWIAQQTGI
B5: Cattle: cattle AST, SEQ ID NO: 32 and 33 (protein, listed as Bos taurus)
chain: MYRPARVTSASRSLNPYLVFFVVVAVVVILAVIIGLLVYFLAFDQKSYFYQSSIQILGKQYSDELSSPATEKYRTLSGRIESMITKTFKESDLKNEFIKAHVVKLRQSGNNVIADIIMKFKFTRRINEASMKSRIESILRQMPNNSEDLNMNPTQVISITGQDTIQLFTRECGVRSDLITLSEERIIGGSKAEKGDWPWQVSLQWSSSHRCGGALISNRWILSAAHCFRSHSDPRQWIATFGTSTISPQLRVGVRNILIHDNYKPETHENDIALVQLDREVTFNRYIHTVCLPEANQAISAGSTAYVTGWGSQSYSGSTVSDLNQGRVNIISNTVCNTPAGYNGAVLSGMLCAGLPEGGVDACQGDSGGPLVQEDSRQHWFIVGIVSWGYQCGLPDKPGVYTRVTAYRDWITQQTGI

Assay: Enzymatic activity of mammalian ASTs transiently expressed in 293 EBNA cells
Type: biochemical
Details: 293 EBNA cell lysate, three days after transfection
Method: A forward primer and a reverse primer were prepared on gene sequences encoding the N-terminal and C-terminal of each mammalian AST, and a cDNA encoding the full-length AST was prepared by a PCR amplification using the forward primer, the reverse primer, Pyrobest DNA polymerase (produced by Takara Shuzo Co.), and an airway cDNA as a template. On the other hand, a product obtained by cleaving pcDNA3 (produced by Invitrogen Corp.) with restriction enzymes NruI and KpnI, and the promoter domain of Elongation Factor-1a (EF-1 a) from human genome were amplified by a PCR using a forward primer: […] and a reverse primer: […]. The amplified fragment was cleaved with restriction enzymes NruI and KpnI, and then inserted into the above-described plasmid vector to construct the pEF9 expression vector having the promoter of the human EF-1α. The PCR-amplified ATS fragment was inserted into a multi-cloning site in the downstream of the human EF-1α promoter of the above-described pEF9 expression vector to prepare each animal AST expression plasmid. The base sequences were identified with an automatic sequencer.
Human fetal kidney-originated 293 EBNA cells (Invitrogen Corp.) were cultured in a 10 cm schale, and the about 5.8×10^6 cells were transfected with 28 μg of each expression plasmid prepared in (1) in 56 μL of LipofectAMINE 2000 (produced by GibcoBRL Corp.) according to an appended manual. Three days later, the cells were lysed and recovered in 5 mL of M-PER (produced by PIERCE Corp.) and then mixed with 5 mL of a buffer solution (50 mM Tris-HCl, 0.01% BSA, pH=8.6) for AST activity assay to give the cell lysate. The cell lysate was further diluted with the buffer solution for the AST activity assay ten times, and then supplied for the activity assay. 40 μL of the above-described assay sample was mixed with 20 μL of a synthetic substrate solution (a solution obtained by diluting a 10 mM Boc-Phe-Ser-Arg-MCA DMSO (dimethyl sulfoxide) solution with the buffer solution for the AST activity assay 50 times), and the increase of the fluorescence intensity per minute was assayed (fluorescence wavelength: 460 nm, excitation wavelength: 380 nm) to determine the enzymatic activity.

Compared with B1, B2 is lower in “Cell lysate Fluorescence intensity ratio (Human:100)” value: 250 for the first, 30 for the second.

Compared with B3, B4 is higher in “Cell lysate Fluorescence intensity ratio (Human:100)” value: 40 for the first, 92 for the second.

With B5 the “Cell lysate Fluorescence intensity ratio (Human:100)” value was 16.

Same assay, conditions: 293 EBNA, Sup

For B1, the “Sup Fluorescence intensity ratio (Human:100)” value was 150.
